We go through 63 sequences from the supplement of paper PMC9112550, “Optimization of the antimicrobial peptide Bac7 by deep mutational scanning” (BMC Biology, 2022).
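Note: peptides expressed intracellularly from a pBAD plasmid library in pooled LB shake-flask culture, induced with 0.3% L-arabinose, DNA abundance read by NGS, three biological replicates, DESeq2 with apeglm shrinkage.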

The series deals with Escherichia coli TOP10. The experiment in a line: shrunken log2 fold change of peptide-encoding DNA abundance (4.5 h post-induction vs induction); higher = less antimicrobial activity (less host growth inhibition). Particulars: time post-induction: 4.5 h; library: site-saturation at positions 5, 18, 19, 20.
Turning to RRIRGRPPRLPRPRPRPVPQPRP, the “shrunken log2 fold change” value came out at 0.618.
RRIRMRPPRLPRPRPRPAEYPRP: the “shrunken log2 fold change” value was 0.0354.
For RRIRVRPPRLPRPRPRPAMMPRP the value was 0.464.
For RRIRLRPPRLPRPRPRPNETPRP the value was -0.0172; for RRIRSRPPRLPRPRPRPAKFPRP, -0.134.
Consider RRIRIRPPRLPRPRPRPCGHPRP, for which the “shrunken log2 fold change” value turned out to be 0.00489.
With RRIRIRPPRLPRPRPRPCHFPRP the figure was -0.131; with RRIRIRPPRLPRPRPRPGIGPRP, 0.127; with RRIRVRPPRLPRPRPRPLMQPRP, -0.0132.
With RRIRLRPPRLPRPRPRPDYKPRP the figure was -0.354.
For RRIRPRPPRLPRPRPRPLVPPRP the value was 0.125; for RRIRWRPPRLPRPRPRPFLMPRP, -0.115.
In the case of RRIRQRPPRLPRPRPRPCMKPRP, the “shrunken log2 fold change” value is -0.0118.
For RRIRRRPPRLPRPRPRPCYYPRP the value was 0.0129; for RRIRNRPPRLPRPRPRPPTCPRP, -0.221; for RRIRSRPPRLPRPRPRPNSFPRP, -0.63.
For RRIRMRPPRLPRPRPRPSSKPRP the value was 1.87; for RRIRYRPPRLPRPRPRPHSVPRP, -0.07; for RRIRQRPPRLPRPRPRPHIGPRP, -0.0345.
With RRIRLRPPRLPRPRPRPCTEPRP the figure was -0.0105.
Regarding RRIRGRPPRLPRPRPRPRNSPRP, the “shrunken log2 fold change” value was determined as 0.114.
For RRIRGRPPRLPRPRPRPNFRPRP the value was -0.00192.
With RRIRVRPPRLPRPRPRPISSPRP, the “shrunken log2 fold change” value is -0.136.
With RRIRMRPPRLPRPRPRPIPCPRP the figure was 0.02; with RRIRKRPPRLPRPRPRPQRMPRP, 0.408; with RRIRWRPPRLPRPRPRPMAKPRP, 0.148.
With RRIRPRPPRLPRPRPRPFQCPRP the figure was -0.0376; with RRIRMRPPRLPRPRPRPFGEPRP, 0.0461.
For RRIRTRPPRLPRPRPRPMVSPRP the value was -0.0669; for RRIRARPPRLPRPRPRPAYHPRP, -0.0226; for RRIRPRPPRLPRPRPRPGLYPRP, -0.132.
Take RRIRPRPPRLPRPRPRPNIDPRP: the “shrunken log2 fold change” value was -0.468.
For RRIRWRPPRLPRPRPRPLREPRP the value was 0.125.
In the case of RRIRVRPPRLPRPRPRPAFDPRP, the “shrunken log2 fold change” value was -0.339.
For the sequence RRIRIRPPRLPRPRPRPRCCPRP, the “shrunken log2 fold change” value is -0.181.
For the sequence RRIRLRPPRLPRPRPRPCMLPRP, the “shrunken log2 fold change” value is -0.398.
With RRIRNRPPRLPRPRPRPGYTPRP, the “shrunken log2 fold change” value is -0.501.
In the case of RRIRARPPRLPRPRPRPWGAPRP, the “shrunken log2 fold change” value was found to be 0.401.
In the case of RRIRWRPPRLPRPRPRPEEGPRP, the “shrunken log2 fold change” value was -0.00968.
RRIRSRPPRLPRPRPRPTLEPRP: the “shrunken log2 fold change” value worked out at 0.474.
For RRIRARPPRLPRPRPRPPSHPRP the value was 0.351; for RRIRFRPPRLPRPRPRPNDCPRP, -0.415; for RRIRGRPPRLPRPRPRPAVDPRP, 0.896.
With RRIRARPPRLPRPRPRPWWWPRP the figure was 0.0143.
With RRIRQRPPRLPRPRPRPYVIPRP the figure was 0.0316.
Take RRIRERPPRLPRPRPRPSWNPRP: the “shrunken log2 fold change” value is -0.701.
Regarding RRIRIRPPRLPRPRPRPKVLPRP, the “shrunken log2 fold change” value was -0.0165.
In the case of RRIRERPPRLPRPRPRPGFLPRP, the “shrunken log2 fold change” value was -0.0604.
With RRIRRRPPRLPRPRPRPATSPRP the figure was 0.0892.
With RRIRNRPPRLPRPRPRPRDWPRP the figure was 0.0384; with RRIRFRPPRLPRPRPRPNTIPRP, -0.409.
For RRIRARPPRLPRPRPRPDECPRP the value was -0.0409.
As for RRIRMRPPRLPRPRPRPYSSPRP, the “shrunken log2 fold change” value is -0.115.
In the case of RRIRARPPRLPRPRPRPWSQPRP, the “shrunken log2 fold change” value was determined as 0.149.
As for RRIRPRPPRLPRPRPRPENLPRP, the “shrunken log2 fold change” value was -0.278.
With RRIRSRPPRLPRPRPRPQFQPRP the figure was -0.124; with RRIRVRPPRLPRPRPRPFSWPRP, -0.144.
On to RRIRQRPPRLPRPRPRPMGWPRP, for which the “shrunken log2 fold change” value is 0.379.
For RRIRLRPPRLPRPRPRPMNAPRP the value was -0.446.
For RRIRKRPPRLPRPRPRPVEDPRP, the “shrunken log2 fold change” value is -0.000777.
For RRIRFRPPRLPRPRPRPPWWPRP the value was 0.651; for RRIRIRPPRLPRPRPRPMPDPRP, 0.0702; for RRIRPRPPRLPRPRPRPRGYPRP, 0.523.
